For the test, the target named is mini-SaCas9-3 with four tandem repeats of SpyTag fused to its C-terminal (Streptococcus pyogenes). Description: cell-based or functional assay.

Regarding SpyCatcher:VPR, the expression of the enhanced blue fluorescent protein 2 (EBFP2) reporter gene compared to the negative control amounted to 100 fold.

Source of the values: patent US11674128.
